Source: patent WO2018084236A1 (dated 2018)

Molecular target: T1, peptide fragment of the human prorenin receptor protein, 200-213th polypeptide (SEQ ID NO: 37) (human)
T1 construct: For immunisation, KLH was linked to its amino terminus; also called peptide fragment of the prorenin receptor
T1 peptide: HKHLAKDHSPDLYS
Assay: BLI (BLItz, Pall ForteBio), antibody in hybridoma culture liquid against the prorenin receptor peptide fragment

binding result: binds
B1: anti-prorenin receptor monoclonal antibody 8_6 (antibody, IgM, V domains shown)
VH: VQLVESGGGLVQPGRSLKLSCAASGFTFSNYYMAWVRHAPKKGLEWVATISTSGSRTYYPDSVKGRFTISRDNAKSSLYLQMNSLKSEDTATYYCARHEFGAFDYWGQGVTV
VL: DIVMTQSPSSLAVSAGETVTINCKSSQSLLYSGNQKNYLAWYQQKPGQSPKLLIYWASTRQSGVPDRFIGSGSGTDFTLTISSVQAEDLAIYYCQQYYDTPYTFGAGTK
notes: Rat hybridoma antibody, isotype IgM; Hybridoma culture liquid was tested in the BLI screen
